Measured values reported in the DeepSol protein solubility set.

Experiment: soluble on expression in E. coli; label from the status in PepcDB or PDB records
For “MPCQSKKNPSEVHISSGRDLVQRTFVFSNTTGKDFLLKLITSSEAISFPTNIFRFPPSSHRVIQFRVNSSKLSHWDKLNMSIKGYVMPIYAKNLKQFIDQKSTAGTQDQEAFSLAVKFTDQYSAPQVLINLPGSATCIESMDHPVGIEELDTITAVNIEKDALTAAPIGNLMGFVEEYKRRNTNKGGCWLSNYICGGEEEQKEKKSIRGASRRSSRSSKKSAKSAGSSSCRSQSRKKNKKSQVNVCLEATPCGGSTIQA”, the “soluble on expression in E. coli” value was “not soluble”. For “MPCVQAQYSPSPPGSTYATQTYGSEYTTEIMNPDYAKLTMDLGSTGIMATATTSLPSFSTFMEGYPSSCELKPSCLYQMPPSGPRPLIKMEEGREHGYHHHHHHHHHHHHHHQQQQPSIPPPSGPEDEVLPSTSMYFKQSPPSTPTTPGFPPQAGALWDDELPSAPGCIAPGPLLDPQMKAVPPMAAAARFPIFFKPSPPHPPAPSPAGGHHLGYDPTAAAALSLPLGAAAAAGSQAAALEGHPYGLPLAKRTATLTFPPLGLTASPTASSLLGESPSLPSPPNRSSSSGEGTCAVCGDNAACQHYGVRTCEGCKGFFKRTVQKNAKYVCLANKNCPVDKRRRNRCQYCRFQKCLSVGMVKEVVRTDSLKGRRGRLPSKPKSPLQQEPSQPSPPSPPICMMNALVRALTDATPRDLDYSRYCPTDQATAGTDAEHVQQFYNLLTASIDVSRSWAEKIPGFTDLPKEDQTLLIESAFLELFVLRLSIRSNTAEDKFVFCNGLVLHRLQCLRGFGEWLDSIKDFSLNLQSLNLDIQALACLSALSMITERHGLKEPKRVEELCNKITSSLKDHQRKGQALEPSEPKVLRALVELRKICTQGLQRIFYLKLEDLVSPPSVIDKLFLDTLPF”, the “soluble on expression in E. coli” value was “soluble”. For “MPDEKDKHEGTWLQWPHEYTYGEEYKKEVEPIWVKMASALTEGEKVHIVAYDQEEKERINNLLTDEGLNMEKIDFFIAPTDDVWARDSGPIFVYDSNKNLKILDPAFNGWGKKTPYKNDAQIRKNVSKQSGIERVDWGKFVLEGGAIELDSNGTALLTRSAVTNKNRNPDLSEKEIEKYISDLGVSNFIWLDGVPNLDITDFHIDGFAKFHNKSTIVTMKEDDLAEWGLSNKDMDTLLDAKNASGQKYKYEYLPLSKEKVALENGKTLDYKGSYINYYIGNTVVLVPNYNDPNDKIANDTIQKLYPDRKVVGIDVRELYKNGGMIHCVTQQQPIALK”, the “soluble on expression in E. coli” value was “not soluble”. With “MPDGWRKMGVLVFYDLPVVSPEQRLAAVRFHKFLLADGFERMHYSIYARYCGSMERAATYERRVEQALPAVGHVNLLKLTDRQMVGMRKWIRGNYRAPENAEFVPPAQYQLFLEHHHHHH” the “soluble on expression in E. coli” value was “not soluble”. In the case of “MPDPQGGEIVYVGGTLLDLNRYELYYQFDFTAKYEITEEDTRQAEDVNALPDLSLLSIDVDYIDPGTGPDGDIEHHLEMRFPQN”, the “soluble on expression in E. coli” value is reported as “not soluble”. For “MPDSSMKRGATLCLALAIGPGSTLADDSLGHRDNISTGLNQRQKAEMKVPPGFVEGSTLNGFIRNYYFARDNHDTPSRRDQREWAQGLMLSFRSGYTDTPIGIGLDAHAFYGLRLDGGGGSGGAGVLPLDSAGRPADSFSAAGAALKLRGLDSLLKIGDQLLENPVIASGVSRMVPQSYRGVTLKNYHFRALELDAGFVEATRLRNQSGHSHLTSGYGNGTKGGIAADRESPHIAWLGASYSAPGGSQATLYSGRLEDIWNQHYLGLSQPWRLSSQLTLTPWLHYYKTRDQGRSQLGRIDNDLYNAGLTLAGGGQSLSLSLQKVDGDTPFDFIAQNDRTFLYESNAMQYADFNGPGERSWKIQYQASLAFLAAPDWQFGAAYGRGQADLTRVDPDSAGYGYLYNPNGKNAQHWERDLSLRYAFPAGPAKGLSVTLRWATHRPGEGYTAPGNTRGNSSSDEYRVVVDYPIRLL”, the “soluble on expression in E. coli” value was “not soluble”. For “MPEASHPDHLIRAGRLQADDARLFTPEADGPADQTPPDEPGWLVTLATWKAAAATLRARRHPVGVQLPPDARLDELTGPDGELDRAALSFIAIEFPVYTDGRGYSLAQLLRRRYGWDGELRAVGDVMIDTIHYQARVGFDSFLVKPGHDPQRALAAFRTFSVHYQHTYPAPLAA”, the “soluble on expression in E. coli” value was “not soluble”. In the case of “MPEDLALESNPSDHPRASTIFLSKSQTDVREKRKSNHLNHCDLSNILPHKEQREKVPEEYFKHDPEHKFIYRFVRTLFSAAQLTAECAIVTLVYLERLLTYAEIDICPTNWKRIVLGAILLASKVWDDQAVWNVDYCQILKDITVEDMNEMERHFLELLQFNINVPASVYAKYYFDLRSLADDNNLNFLFAPLSKERAQNLEAISRLCEDKDLCRAAMRRSFSADNFIGIQRSKAILS”, the “soluble on expression in E. coli” value is reported as “not soluble”. In the case of “MPEFIIVEGNNDLGEFFQIDGELFSDNELLENLKKWREWEVPVIIDDWCNRILNEDETEILYFPTHEDKMNYIRVEKDLEPLYHTSNKIYATISKSEWLELLN”, the “soluble on expression in E. coli” value is reported as “not soluble”. In the case of “MPEHLNARVEACYRQAEHFFQRSFPRPTVSFRLRGQKAGVAHLDENLLRFNPQLYRENREHFLEQTVAHEVAHLIAHQLFGPRIRPHGEEWQLIMRGIYGLPPDRCHTYAVKRRATTRYLYRCHCPEHNDFPFSPQRHTLVAKGRRYYCRRCKATLVFTGEVLRELEHHHHHH”, the “soluble on expression in E. coli” value is reported as “soluble”. In the case of “MPEHTKVSAEDQALLNKFARSYQTQTQLKADVKEAKTLIDNINEASDEILLLDDEDSASIPCRIGSCFVHFNGDSLNEHLEGKKTTAEKVLSEKTSELDAISADMEQIKKVLYAKFGDQINLDAEE”, the “soluble on expression in E. coli” value is reported as “soluble”. With “MPELAISTDKVAFLIEKAREFDVKEGESDADSGSNGADDDMVDVLEDTGDDPVVQEISGFIAAMTEEEQIDLVALMRLGRGDGSIEEWDDLRREAAEGRNGRTARYLLGEPLLGDYLADGLDQFGLSWSDERTTPVV” the “soluble on expression in E. coli” value was “not soluble”. In the case of “MPEQSIEMTPDSSVYKALLESTKAIPWKINWQTMAFEYIGPQIEALLGWPQGSWKSVEDWATRMHPEDQEWVVNFCVKQSECGVDHEADYRALHRDGHYVWIRDVVHVVRDDSGEVEALIGFMFDISERKKTLEHHHHHH”, the “soluble on expression in E. coli” value is reported as “not soluble”. For “MPERIATVGWSNHEVPLALGVTPVGFEKVTWGDDDNNGILPWVEETLSKLGSDEPVLFDATDSIPFEEIANTAPDVILASYSGITQEDYDQLSQIAPVVAYPEIAWGTSLDEMIEMNSKAIGLEQEGKDLIADLDAEVASAIDANPELEHHHHHH”, the “soluble on expression in E. coli” value was “not soluble”. With “MPFKMSSKAQTIKIFNLRSDTNEFIGAGDAYIPPHTGLPANCTDIAPPDIPSSHIAVFDAETQTWNLKEDHRGETVYDTTTGNQMYISEPGPLPENVTSVSPGGGYKKWDSKAKAWVNDEGAEVAARLREAEGTKSRLLQMASGKIAPLQDAVDLGIATDDEKAQLDEWKKYRVLVNRVDTSNPDWPEQPV” the “soluble on expression in E. coli” value was “not soluble”. With “MPGEFAKFPEQSAGSHQFRNPLDELTGSNTITNLTAHDFDYFTQSEKNSNLYTSENTSNSNRLNLNQNIPVGTLIDGFELINEASGSGFLDDQLVDVSDYSRDRTTKLDRNRNSPELIVALLQRKVQGIRFSSNYGREEEPCVIEIPPGTMVREMADDDWKMSELKEWFTKSRASSHLRDGLAMPMEELDCTPLICAMITRSDVMRINQDQAIHLLAVSVEKRIEVYQNFEWFNFILNLKIGDSVSVEVDETMRRVPAKVSWIGERPEASGIWYNVDFDGNTSQWPSSNQSYSSSHDRLNRQFDTNWNFEMSGSSSVAPSNSRLYYSPNQMHMPMKGGGVSALYDNRRLVQYSGDEEQYRSAPKPAPRERIIPVSRQQPEIEQRNSRSMKPSEPDYNTYSTHPPRPPPSSSMNYPSMSNTHSLQPSRSKSVQTIQRNQFVRQNPAERNERVESDQLNFRIGDQCIWNNNGAEERGIIKYIGFLKGHKTLYAGVEFKNTIGAGTGVFNREQLFLAKDGHAGFVELSSLESPSSSISSTSTSSSQHRRRLSSSRSQQMPAASGTSISVPVNGRHNVNGKQASIESLSDPPPPPYAPPSPPRASSAAAAHQQPPPLPPKPLARVEDFLIDSYDIGSHVVVRHLGAQRTGVVRWLGEEIDDEGDRIVRSAIVQLDEDVPTAWRRSHDASSYTGSPVVGGVLVPIQSLKHNHSGSSSNGASVVQTSTYPTSQTYNNISRRTEDFGSMDSGVEKQKCGIAKDMQQLVGRQKGIQGYCNSCYLDATLYAMFVQTTCFDFLLEKSIKGSETAQQFQKILAHEIVFPLRKVHYVRADHVMKLRKLLAELMPHVTGLTNEEKDPEEILGFIFSKVFHAEPFIKLIGQNHAKDSQYLVPIVVDDWLGGAATSQHLLERHMRSAQVTFAKAPPVLIMQLPRYGQQKVFDKILPLETIDITPFVAGAVPACSKCQACSEVYCPTCFLTRRVFYSEVIFCRKCFHHTHLLPEIEDHKSRDLYPPGKPQKKPHSHKMVLSAVLCIETSHYVAYVRTSSNQWVFFDSMADREGLSDGFNVPVVRECGNMSDWLSLQGWNRLKDADECGQIKVWELNKNISPNDRKLEIAMFGKQSSLDPLVGRLLSDSYICFYEDASPTSSSSSSSTIISSIKNMMN” the “soluble on expression in E. coli” value was “not soluble”. In the case of “MPGGRRRGFDDQVALQTAMELFWRQGYEGTSITDLTKALGINPPSLYAAFGSKRDLFEKTLDRYMCERTLQLEEAMVRPTAHEAVLDFLTGRVEVFTAPGQPFGCMTVQAGLASGEPHHEIVDLLTAAREQMRQTVLDRFEKALADGDLPAGTDCTALARYVMAAVYGLSVEAASGAPREELTAAAILAAQVVPRAQM”, the “soluble on expression in E. coli” value is reported as “soluble”. With “MPGIAIIGAQWGDEGKGKVVDVLAREADYVIRYQGGANAGHTVVAEGKVFKLNLLPSGVIHPHAVNVLGDGMVIDPFRFQEEVEGLRKEGFDPKILVSERAHLVLPHHKHVESRHNFVGTTGRGIGPAYSDRARRVGIRAGDLLDEATLRERVRRLLAEKPNSTREAGWDTEEKALADLHRMREILSPYIADTGSLLREAWRKGKRLLFEGAQATLLDLNYGTYPYVTSSHPTVGGILVGTGLSHKAITKVYGVAKAYTTRVGEGPFPTELQGELAHHLREKGGEYGTTTGRPRRVGWLDLVALRYACEVNGFDGLVLTKLDVLSGLEKVKVAVEYLDGARPGEASPEAVRYLELPGWGDLSHVKRREDLPANLLRYLELVEEHTGVPVVLFSTSPRREDTFGAVSWV” the “soluble on expression in E. coli” value was “soluble”. For “MPGWRSICAVMGLTFTGCVFIQGSARAQDGNKATAVLELYTSQGCKSCPPADKNFAKYADDPNVLALSFHVNYWDYMGWRDTLATQDNTDRQNSYRNAFHAKMIYTPQAIINGAVEANGRNGAAINAKIAANKLDVPVSIQQLNDGRLSIDIGAGKKPRDPVHVVLFYFRDSATIPITEGENAGKAITYRNTVSDIDTIGMWDGKPLKIELPASELKRKDVTGCAVVLQETRSDNSLGPMHGAAMFKQKRPVSFLEHHHHHH”, the “soluble on expression in E. coli” value was “not soluble”. In the case of “MPHLFYGTAQNGEVIFDEREAHHMRVVRLKEGDVIEATDGNGFSYTCILKSLKKKTAAAKIVKVEEKEKEPTEKLSVVVPIGRWERTRFLIEKCVELGVDEIFFHKFERSQHEISLDKAKIVVREAAKQCKRYLFPKVSFLEKLEFSGNVITLDLDASQNLLDANLEGSITVVVGPEGGFSEKERELLRSSTTIVSLGKKILRFETAAILTVGYIALKKQKI”, the “soluble on expression in E. coli” value is reported as “not soluble”. For “MPIIYYDGNCVYCYNYAIWLIQHGLSTRYQFAKLQGDVAQNLLENYPEAQQYDSVILQEGDQLKYKSDAITTLITSLTNYKWLGILLRFVPNIIRDFGYQLFADNRNHMWKTHWHEPNDYEKSFFIDLEHHHHHH”, the “soluble on expression in E. coli” value was “not soluble”. With “MPILQPKLMKQLMKFAIFGNTYQPKKSLHALRLFELLKKQGAEICMCREFYQFLTADLKMEVPVDALLEGNDFTADMVISIGGDGTFLKAARRVGRKQIPILGINTGRLGFLADVSPEEMEVTFEEIQAGRYSVEERSVLQLICNDRNLQESPYALNEIAVLKRDSSSMISIRTAINGAYLNTYQADGLVIATPTGSTAYSLSVGGPIIVPHSNTIAITPVAPHSLNVRPIVIRDDWEITLDVESRSHNFLVAIDGSSETCKETTQLTIRRADYSIKVVKRFNHIFFDTLRSKMMWGADGRRLEHHHHHH” the “soluble on expression in E. coli” value was “soluble”.
